Biological target: T1, human PDGFRβ isoform 1, myc-tagged, expressed on Expi293F cells (human, UniProt P09619 33-1106)
T1 construct: not shown: N-terminal myc-tag and linker
Assay: flow cytometry, gH/gL/gO-sfGFP medium on Expi293F cells expressing PDGFRβ (negative control)

T1 sequence (P09619 33-1106): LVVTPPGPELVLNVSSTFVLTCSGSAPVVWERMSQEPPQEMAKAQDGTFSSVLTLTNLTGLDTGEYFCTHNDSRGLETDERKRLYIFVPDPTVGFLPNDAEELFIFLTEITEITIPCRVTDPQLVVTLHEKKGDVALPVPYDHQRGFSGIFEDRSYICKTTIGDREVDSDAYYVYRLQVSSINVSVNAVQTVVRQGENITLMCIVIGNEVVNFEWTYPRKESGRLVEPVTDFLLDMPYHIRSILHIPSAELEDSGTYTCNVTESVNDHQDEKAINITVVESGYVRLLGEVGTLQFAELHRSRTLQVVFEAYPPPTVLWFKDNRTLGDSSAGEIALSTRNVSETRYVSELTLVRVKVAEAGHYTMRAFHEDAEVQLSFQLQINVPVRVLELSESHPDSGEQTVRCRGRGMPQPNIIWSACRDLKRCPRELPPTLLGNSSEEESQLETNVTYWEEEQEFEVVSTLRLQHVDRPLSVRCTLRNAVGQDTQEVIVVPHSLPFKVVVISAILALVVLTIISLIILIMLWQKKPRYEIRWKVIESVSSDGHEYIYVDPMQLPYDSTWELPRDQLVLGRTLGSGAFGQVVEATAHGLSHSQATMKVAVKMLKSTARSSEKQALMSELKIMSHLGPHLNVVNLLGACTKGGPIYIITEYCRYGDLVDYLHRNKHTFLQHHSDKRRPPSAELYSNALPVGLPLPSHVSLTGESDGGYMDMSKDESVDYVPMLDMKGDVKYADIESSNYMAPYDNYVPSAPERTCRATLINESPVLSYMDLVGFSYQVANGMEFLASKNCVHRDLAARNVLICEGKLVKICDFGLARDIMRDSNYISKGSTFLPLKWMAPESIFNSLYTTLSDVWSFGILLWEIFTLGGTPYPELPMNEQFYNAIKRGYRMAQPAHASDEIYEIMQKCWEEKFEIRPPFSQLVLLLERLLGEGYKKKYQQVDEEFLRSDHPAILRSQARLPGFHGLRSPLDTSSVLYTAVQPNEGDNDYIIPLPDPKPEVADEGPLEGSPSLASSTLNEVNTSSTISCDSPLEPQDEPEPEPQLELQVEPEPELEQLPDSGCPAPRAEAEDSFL

B1: soluble HCMV glycoprotein trimer gH/gL/gO-sfGFP from strain TB40/E (other)
chain 1: […]
chain 2: VAVSVAPTAAEKVPAECPELTRRCLLGEVFQGDKYESWLRPLVNVTGRNGPLSQLIRYRPVTPEAANSVLLDDAFLDTLALLYNNPDQLRALLTLLSSDTAPRWMTVMRGYSECGDGSPAVYTCVDDLCRGYDLTRLSYGRSIFTEHVLGFELVPPSLFNVVVAIRNEATRTNRAVRLPVSTAAAPEGITLFYGLYNAVKEFCLRHQLDPPLLRHLDKYYAGLPPELKQTRVNLPAHSRYGPQAVDAR
chain 3: […]
notes: also called TB40/E trimer; CMV trimer; not shown: C-terminal FLAG tag; C-terminal superfolder GFP (Pedelacq et al. 2006)
binding result: no binding

From patent US20220380436A1 (BOARD OF TRUSTEES OF THE UNIVERSITY OF ILLINOIS, published 2022)
